Results on two proteins are retold here after PMC9077843.

Data set [1] in a line: Western blot, HEK293T. As to conditions: glycan lost; control: B3GNT5-WT-Flag. (A western blot detects proteins with antibodies after separation by electrophoresis.)
The nature of data set [2]: Western blot, MDA-MB231 and BT549, B3GNT5-WT-mcherry. As to conditions: glycan lost; control: untreated.

B1: B3GNT5 (β1,3-N-acetylglucosaminyltransferase V): 4NQ (protein)
parent chain: MRMLVSGRRVKKWQLIIQLFATCFLASLMFFWEPIDNHIVSHMKSYSYRYLINSYDFVNDTLSLKHTSAGPRYQYLINHKEKCQAQDVLLLLFVKTAPENYDRRSGIRRTWGNENYVRSQLNANIKTLFALGTPNPLEGEELQRKLAWEDQRYNDIIQQDFVDSFYNLTLKLLMQFSWANTYCPHAKFLMTADDDIFIHMPNLIEYLQSLEQIGVQDFWIGRVHRGAPPIRDKSSKYYVSYEMYQWPAYPDYTAGAAYVISGDVAAKVYEASQTLNSSLYIDDVFMGLCANKIGIVPQDHVFFSGEGKTPYHPCIYEKMMTSHGHLEDLQDLWKNATDPKVKTISKGFFGQIYCRLMKIILLCKISYVDTYPCRAAFI
Take B1: the expression_or_secretion entry in data set [1] was “decreases”.

B2: B3GNT5 (β1,3-N-acetylglucosaminyltransferase V): tunicamycin (TM, 2.5 μg/mL, 24 h) (protein)
parent chain: B1 parent chain
On to B2, for which the expression_or_secretion entry in data set [2] is listed as “decreases”.
